biological target: C5 (Homo sapiens, UniProt P01031); experiment: Monoclonal phage screening ELISA, human C5; assay type: binding; conditions: anti-C5 ultralong CDR-H3; binder = OD>0.2 AU
Description: For the C5 libraries, a single round of enrichment was performed with either human or rat C5 protein. […] Phage were blocked for 30 minutes. Biotinylated antigen was added to the blocked phage at a concentration of 100 nM and incubated at room temperature with mixing.
Colonies were picked into a 96-well culture plate containing selective medium 2TY supplemented with 1% Glucose and 100 μg/ml Carbenicillin and was incubated at 37° C. until wells reached mid-log phase of growth prior to addition of M13K07 helper phage. The block was incubated without shaking for 1 hour to achieve infection and phage production using continued culture in selective media supplemented with 50 μg/ml Kanamycin and 100 μg/ml Carbenicillin.
Binding to antigen was assessed by monoclonal phage ELISA, 96-well flat bottom Nunc MaxiSorp plates (Thermofisher) were coated with a 2.5 μg/ml solution of human, mouse, or rat serum albumin, human C5 or mouse C5 diluted with PBS, and left overnight at 4° C. Negative control plate and Anti-myc tag plate were also prepared.
Monoclonal phage rescue supernatants were blocked with an equal volume of a 2% milk (w/v) in PBS, for serum albumin proteins, or 2% BSA and 2% milk (w/v) in PBS solution. The coating solution was removed from coated Nunc plates and each plate was blocked with 1% BSA in PBS (for C5 libraries) or 1% milk powder (for albumin library). Both phage and Nunc plates were blocked for 1 hour at room temperature. Nunc plates were washed using a 96-well microplate washer (BioTek) with a PBS solution contain 0.1% Tween20 (Sigma Aldrich). 100 of blocked phage solution was added to each well of Nunc MaxiSorp plate and left shaking at room temperature for 1 hour. Plates were washed and dried as previously described. 100 of an Anti-M13-Horse radish peroxidase conjugated antibody (GE Healthcare) diluted (1:5,000) in a 1% BSA or milk solution was added to each well and left shaking at room temperature for 1 hour. Plates were washed again and 50 μL of TMB solution (Merck Millipore) was added to each well. Plates were left shaking for 10 minutes. Absorbance was measured at 630 nm and 490 nm. Binding signals were obtained where Absorbance at 630 nm was >3-times the signal upon irrelevant antigen.
By monoclonal phage ELISA the following ultralong CDR-H3 sequences were identified as binders (OD>0.2 AU): […]

Chain of C5 (P01031 19-1676): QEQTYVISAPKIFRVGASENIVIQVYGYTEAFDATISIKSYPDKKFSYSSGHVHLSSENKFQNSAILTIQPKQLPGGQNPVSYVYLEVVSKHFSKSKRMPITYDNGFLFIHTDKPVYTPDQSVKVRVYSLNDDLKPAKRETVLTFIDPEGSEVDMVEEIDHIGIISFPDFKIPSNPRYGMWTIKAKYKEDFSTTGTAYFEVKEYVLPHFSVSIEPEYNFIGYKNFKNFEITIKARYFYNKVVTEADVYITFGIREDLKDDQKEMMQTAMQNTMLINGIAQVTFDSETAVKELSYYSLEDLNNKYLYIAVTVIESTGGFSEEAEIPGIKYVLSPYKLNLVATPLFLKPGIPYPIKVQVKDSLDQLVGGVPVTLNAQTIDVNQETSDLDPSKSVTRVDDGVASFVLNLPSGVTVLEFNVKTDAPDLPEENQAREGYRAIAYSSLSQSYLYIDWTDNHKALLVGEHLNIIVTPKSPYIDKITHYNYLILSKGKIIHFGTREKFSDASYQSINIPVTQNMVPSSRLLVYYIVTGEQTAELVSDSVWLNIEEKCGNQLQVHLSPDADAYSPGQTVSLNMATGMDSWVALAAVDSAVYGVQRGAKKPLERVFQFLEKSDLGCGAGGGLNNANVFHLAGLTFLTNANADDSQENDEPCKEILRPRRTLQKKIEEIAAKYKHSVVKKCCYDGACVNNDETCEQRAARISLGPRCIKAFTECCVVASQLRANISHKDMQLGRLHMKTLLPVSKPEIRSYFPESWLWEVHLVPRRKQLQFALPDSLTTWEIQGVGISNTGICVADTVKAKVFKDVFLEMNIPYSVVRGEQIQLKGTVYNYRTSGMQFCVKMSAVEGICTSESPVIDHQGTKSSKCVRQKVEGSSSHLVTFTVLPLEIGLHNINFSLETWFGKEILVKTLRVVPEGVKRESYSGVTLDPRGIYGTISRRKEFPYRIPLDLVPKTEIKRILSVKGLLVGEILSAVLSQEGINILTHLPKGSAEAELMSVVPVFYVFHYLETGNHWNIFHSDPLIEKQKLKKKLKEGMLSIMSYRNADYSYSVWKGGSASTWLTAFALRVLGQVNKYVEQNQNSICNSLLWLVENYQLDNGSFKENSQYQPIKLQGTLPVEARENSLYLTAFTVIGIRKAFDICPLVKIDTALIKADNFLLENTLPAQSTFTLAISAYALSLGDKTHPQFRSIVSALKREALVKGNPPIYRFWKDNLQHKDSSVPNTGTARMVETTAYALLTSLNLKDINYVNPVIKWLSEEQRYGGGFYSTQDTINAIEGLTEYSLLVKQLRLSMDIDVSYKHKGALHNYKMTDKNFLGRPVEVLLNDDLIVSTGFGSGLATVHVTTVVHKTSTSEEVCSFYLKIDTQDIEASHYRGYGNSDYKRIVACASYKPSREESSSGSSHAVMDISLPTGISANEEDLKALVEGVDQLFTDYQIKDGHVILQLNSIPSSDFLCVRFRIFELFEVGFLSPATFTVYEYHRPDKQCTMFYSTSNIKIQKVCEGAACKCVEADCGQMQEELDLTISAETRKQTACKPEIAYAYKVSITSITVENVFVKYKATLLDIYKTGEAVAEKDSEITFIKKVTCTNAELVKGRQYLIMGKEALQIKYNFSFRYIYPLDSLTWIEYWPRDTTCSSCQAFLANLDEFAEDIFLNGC

Specificity, Human:
548 (TTVHQRTLKNRNCPDGYGYQRHCTVGEDCTDSCCDRYGLCTTSTETYTYEWYVD; Anti-C5 ultralong CDR-H3) [compound 548]
549 (TTVHQRTLKNRNCPDGYGYQRHCTVGEDCTDSCCDRYGLCTTSTETYTYEWYVD; Anti-C5 ultralong CDR-H3) [compound 549]
550 (TTVHQRTLHNRNCPDGYGYQRHCTVGEDCTERCCDNYGLCTSYTDTYTYEFYVN; Anti-C5 ultralong CDR-H3) [compound 550]
566 (TTVVQRTKRTCPEGLVYNSDQSRCCAADSGVCWEYWRGERVTRGFTYEWYVD; Anti-C5 ultralong CDR-H3) [compound 566]
561 (TTVHQQTNKRRQNCPDGYEYNGFCTPDGGCSRVSNWGWDRSCISPTYTYTYEWYVE; Anti-C5 ultralong CDR-H3) [compound 561]
562 (TTVHQQTTKKSSCPDGYCDCNGCGYGNGCSRGGCFDFRLYSGYSADIVVSTTYTHDFYID; Anti-C5 ultralong CDR-H3) [compound 562]
560 (TTVHQRTAKRCPSNNEDATACRYSSVCGDYVCEGLSESYAQGWGACRRYACRDSYEWYVD; Anti-C5 ultralong CDR-H3) [compound 560]
570 (TTVHQRTIKSGCPPGYKSGVDCSPGSEYKWGCYAVDGRRYGGYGADSGVGSTYTHEFYVN; Anti-C5 ultralong CDR-H3) [compound 570]
541 (TTVHQRTIKSGCPPGYKSGVDCSPGSECKWGCYAVDGRRYGGYGADSGVGSTYTHEYHVE; Anti-C5 ultralong CDR-H3) [compound 541]
544 (TTVHQRTLKNRNCPDGYGYQRHCTVGEDCTDSCCDRYGLCTTSTETYTYELYVE; Anti-C5 ultralong CDR-H3) [compound 544]

same assay, conditions: knob domain of the anti-C5 ultralong CDR-H3

Specificity, Human:
606 (TCPEGLVYNSDQSRCCAADSGVCWEYWRGERVTRGFT; Anti-C5 ultralong CDR-H3 knob domain) [compound 606]
600 (RCPSNNEDATACRYSSVCGDYVCEGLSESYAQGWGACRRYACRDS; Anti-C5 ultralong CDR-H3 knob domain) [compound 600]
604 (SCPDGWSDCHGSCDGVGCTGSDCVRYNARGYGRHACSG; Anti-C5 ultralong CDR-H3 knob domain) [compound 604]
580 (SCPDGYKDNRFCSPDGGCSAVSHWGWDSSCVS; Anti-C5 ultralong CDR-H3 knob domain) [compound 580]
586 (NCPDGYKYNGFCTPDGGCSRVSSWGWDRSCISPT; Anti-C5 ultralong CDR-H3 knob domain) [compound 586]
592 (HCTVGEECTDSCCDRYGLCTTSTET; Anti-C5 ultralong CDR-H3 knob domain) [compound 592]
607 (TCPDGYSYSEGCGKGDDCGGVHCCANGGVTCWYRHCCSTGTDT; Anti-C5 ultralong CDR-H3 knob domain) [compound 607]
608 (RCPSNNEEATACRYSSVCGDYVCEGLSESYAQGWGACRRYACRDS; Anti-C5 ultralong CDR-H3 knob domain) [compound 608]
590 (NCPDGYGYQRHCTVGEDCTDHCCDAYGLCTS; Anti-C5 ultralong CDR-H3 knob domain) [compound 590]
603 (SCPDGWGHSDDCNCACSANAYACCKRDWLLPGPSCECSTYCVS; Anti-C5 ultralong CDR-H3 knob domain) [compound 603]
585 (RCPDGCFLSSYCPVGYACSGFACCDCGGYDYAGGVRGGRCSVRSTT; Anti-C5 ultralong CDR-H3 knob domain) [compound 585]
